± gives the standard deviation.
Assay: protein stability index of a GFP-peptide fusion (GPS, HEK-293T) (PSI 1-6); higher = more stable
Settings: c terminus: a fixed tail appended
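Further: 24-mer peptide tiles fused after GFP, lentivirally expressed, FACS-sorted into six equal bins by GFP/DsRed ratio, decoded by Illumina sequencing, PSI is the read-weighted mean bin number.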

Sequence | protein stability index (treatment: DMSO) | protein stability index (treatment: MLN4924 1 uM, 8 h)
MVMIRGNSGLKPKDNEFTSKPWHW [POMT2] | 2.38 ± 0.26 | 2.21 ± 0.25
AMVTADSKYCYGPQGSRSPYIPPH [FKBP8] | 3.27 ± 0.42 | 3.13 ± 0.26
VVDRIQSSGKNVTLLVCGKKAYDY [PDZK1] | 2.42 ± 0.5 | 2.54 ± 0.31
VEEVVYDLSIRGFNKETAAACVEK [TSN] | 4.63 ± 0.22 | 4.51 ± 0.56
SVGCIFAEMFRRKPLFCGNSEADQ [CDK4] | 2.37 ± 0.2 | 2.58 ± 0.23
LLSLKQNHEQEVNTLRCQLGDRLN [KRT33B] | 3.38 ± 0.16 | 3.46 ± 0.2
VCLPRSEDDDCDDDDDDDAQILPS [DRICH1] | 5.38 ± 0.22 | 5.14 ± 0.09
APKAGLEEAPAVTAGLKIFEPPAP [TNFSF13B] | 4.6 ± 0.26 | 4.68 ± 0.086
LASRNTLFNLSNFLDKSGSHGYDM [SNAP91] | 2.2 ± 0.26 | 2.61 ± 0.16
VGAAYASLRRRGASAAARLGCNRQ [TRIM14] | 3.36 ± 0.17 | 4.09 ± 0.39
DLLKFEKKFQSEKAAGSVSKSTQF [FIS1] | 3.82 ± 0.18 | 3.53 ± 0.18
PPKVKAEDGMQCLQLKETLATQEP [DLC1] | 5.3 ± 0.17 | 5.16 ± 0.2
LDLAGNNIPGDVLRAVEQAMGHSQ [LRRC45] | 4.45 ± 0.39 | 4.44 ± 0.28
SHSNITGIVEVILGETKAYVFFEK [TRIB1] | 2.41 ± 1 | 1.9 ± 0.58
IFCEEHFPVAEQDKLLKHMIIEHK [ZNF277] | 2.75 ± 0.23 | 3.01 ± 0.4
DRERQPLLDRARGAAAQGQTQTVA [PI4K2A] | 5.22 ± 0.18 | 5.13 ± 0.28
ICARACNATLTQYQLLATHVPTVW [RHOBTB2] | 2.67 ± 0.13 | 2.41 ± 0.4
CGPPSLGAVLALVAIFIMSLNKRH [MFSD9] | 3.3 ± 0.89 | 3.41 ± 1.1

Sequence | protein stability index (treatment: DMSO) | protein stability index (treatment: MLN4924 1 uM, 8 h)
TTLDEFPLTRLGQLKACTNFDDIL [KCNG1] | 2.99 ± 0.26 | 2.92 ± 0.22
SELRTKVQEQQKQLQDQDQKLLEQ [FBXO28] | 5.5 ± 0.19 | 5.481 ± 0.034
GKKKISKADIGAPSGFKHVSHVGW [WAS] | 3.06 ± 0.24 | 3.1 ± 0.15
GPHEAFNKLWELCCQWLKPKMRSK [ZNF449] | 2.67 ± 0.88 | 2.99 ± 0.71
AFERQQVENRVVEEAKGLLDKVKD [ZBED1] | 4.97 ± 0.38 | 5.61 ± 0.19
RASATTTITTAAATSVTVPGAGVP [ZBTB22] | 4.49 ± 0.19 | 4.45 ± 0.3
KEDNSLLNQGFLQAKPEKAAVAQK [MYBL2] | 5.26 ± 0.12 | 5.14 ± 0.56
TKCRKRKLERIARLEDKVKTLKAE [JUNB] | 4.28 ± 0.23 | 4.42 ± 0.29
PQDQAGPGGAPRVASRNLFPKDTL [CLPTM1] | 4.41 ± 0.36 | 4.61 ± 0.28
SIEEILEEQRVEQQTKLEAEKLKV [LSM1] | 5.11 ± 0.34 | 5.2 ± 0.22
IGLWGLAVKGSLGSDLGGPLPTDP [TSPAN10] | 2.32 ± 0.27 | 2.39 ± 0.29
VADIDGQYAMTRAQRVRAAMFPET [CTNNB1] | 3.65 ± 0.25 | 3.6 ± 0.24
CFQSCLCCCCYQSKSLMTSVPMNG [EDNRA] | 2.31 ± 0.53 | 2.41 ± 0.18
QEKKRKFLESTDSFNNELKRLCGL [SMARCE1] | 2.87 ± 0.41 | 3.14 ± 0.69
YSNTKENGINGELTSADRETAEEV [MAP2] | 5.47 ± 0.13 | 5.44 ± 0.24
EELRQEWEAKQEKIKSEEIEITFS [FAM50A] | 4.98 ± 0.11 | 4.95 ± 0.35
NTNSDPLDPSFPVEFVRHGDIIRL [POMT2] | 2.69 ± 0.38 | 2.86 ± 0.28
ATYLRCQLLLIKALQEKLWNVAAP [INTS4] | 3.16 ± 0.3 | 2.9 ± 0.39

Reference: the supplement of paper PMC10567573
